Here are results for 38 sequences from the supplement of paper PMC7877785.

± gives the uncertainty stated by the source.

The series can be described thus: self-splicing fitness, log relative to wild type (ln ratio); higher = more splicing; Tetrahymena group I intron in knt gene, E. coli kanamycin selection, DiMSum; sequences stand for … in CUCUCU…GGAGGGAAAAGUUAUCAGGCAUGCACCUGGUAGCUAGUCUUUAAACCAAUAGAUUGCAUCGGUUUAAAAGGCAAGACCGUCAAAUUGCGGGAAAGGGGUCAACAGCCGUUCAGUACCAAGUCUCAGGGGAAACUUUGAGAUGGCCUUGCAAAGGGUAUGGUAAUAAGCUGACGGACAUGGUCCUAACCACGCAGCCAAGUCCUAAGUCAACAGAUCUUCUGUUGAUAUGGAUGCAGUUCACAGACUAAAUGUCGGUCGGGGAAGAUGUAUUCUUCUCAUAAGAUAUAGUCGGACCUCUCCUUAAUGGGAGCUAGCGGAUGAAGUGAUGCAACACUGGAGCCGCUGGGAACUAAUUUGUAUGCGAAAGUAUAUUGAUUAGUUUUGGAGUACUCGUGGUCG
The gist of the method: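 DiMSum derived fitness as the error-weighted combination of fold changes across replicates, kanamycin versus no kanamycin, normalised to wild type. E. coli BL21(DE3) held the library, which randomised all eight P1ex-region intron nucleotides within the knt kanamycin-resistance gene on pET-22b(+). Six replicate transformations grew overnight at 37°C or 30°C on LB agar with or without 25 μg/mL kanamycin, also containing 100 μg/mL carbenicillin, 50 μM IPTG and 0.2% rhamnose, and pooled colonies were amplicon-sequenced on an Illumina HiSeq 2500.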

In the case of UCGUAGCAAUAUUACGAAGC, the “self-splicing fitness (ln)” value (37 °C) is -1.29 ± 0.35.
For the sequence CUUAAGCAAUAUUACGCAGU, the “self-splicing fitness (ln)” value is, setting by setting: (30 °C) -3.71 ± 0.46; (37 °C) -2.56 ± 0.28.
CAAAAGCAAUAUUACGAACG: the “self-splicing fitness (ln)” value (30 °C) was determined as 0.409 ± 0.072 and the “self-splicing fitness (ln)” value (37 °C) amounted to 0.483 ± 0.095.
Turning to UACUAGCAAUAUUACGACCC, under “37 °C”, the “self-splicing fitness (ln)” value was -0.364 ± 0.39.
Take ACCAAGCAAUAUUACGUACA: the “self-splicing fitness (ln)” value (30 °C) was -1.46 ± 0.079 and the “self-splicing fitness (ln)” value (37 °C) is -1.05 ± 0.085.
UUAUAGCAAUAUUACGGCGA: the “self-splicing fitness (ln)” value reads like this: (30 °C) -1.38 ± 0.14; (37 °C) -0.219 ± 0.18.
As to UGCAAGCAAUAUUACGUGUC, the “self-splicing fitness (ln)” value reads like this: (30 °C) -1.55 ± 0.09; (37 °C) -3.56 ± 0.23.
Take CGCCAGCAAUAUUACGUCAA: the “self-splicing fitness (ln)” value reads like this: (30 °C) -2.51 ± 0.17; (37 °C) -2.32 ± 0.17.
AAGGAGCAAUAUUACGAAAU: the “self-splicing fitness (ln)” value by setting is: (30 °C) -2.26 ± 0.14; (37 °C) -3 ± 0.29.
In the same order, the values of ACGAAGCAAUAUUACGGCAC are -2.03 ± 0.17 and -0.996 ± 0.24.
For ACAUAGCAAUAUUACGAGGG, the “self-splicing fitness (ln)” value is -3.52 ± 0.19 (30 °C) and -3.05 ± 0.29 (37 °C).
In the same order, the values of AUGUAGCAAUAUUACGUUCC are -1.92 ± 0.12 and -0.942 ± 0.17.
Turning to ACGCAGCAAUAUUACGGGUU, the “self-splicing fitness (ln)” value by setting is: (30 °C) -2.19 ± 0.069; (37 °C) -1.92 ± 0.092.
Regarding GGGCAGCAAUAUUACGCACU, the “self-splicing fitness (ln)” value is, setting by setting: (30 °C) -1.6 ± 0.32; (37 °C) -1.42 ± 0.24.
In the case of UGGGAGCAAUAUUACGGCGG, the “self-splicing fitness (ln)” value was -2.86 ± 0.4 (30 °C) and -1.23 ± 0.46 (37 °C).
For the sequence UCCGAGCAAUAUUACGGGGA, the “self-splicing fitness (ln)” value by setting is: (30 °C) -1.93 ± 0.15; (37 °C) -0.603 ± 0.11.
For GGAUAGCAAUAUUACGGGCC, the “self-splicing fitness (ln)” value (30 °C) was -2.56 ± 0.35 and the “self-splicing fitness (ln)” value (37 °C) was -1.65 ± 0.23.
For GGAAAGCAAUAUUACGUAAC, the “self-splicing fitness (ln)” value (30 °C) is -1.42 ± 0.12 and the “self-splicing fitness (ln)” value (37 °C) was -1.42 ± 0.16.
Regarding AUGCAGCAAUAUUACGGUAU, the “self-splicing fitness (ln)” value was -4.16 ± 0.27 (30 °C) and -1.42 ± 0.14 (37 °C).
In the same order, the values of AAGGAGCAAUAUUACGAGGG are -2.76 ± 0.24 and -2.93 ± 0.3.
In the same order, the values of UUGUAGCAAUAUUACGUACC are -2.08 ± 0.16 and -1.29 ± 0.17.
On to UCCUAGCAAUAUUACGCUUC, for which the “self-splicing fitness (ln)” value is -3.48 ± 0.18 (30 °C) and -3.1 ± 0.23 (37 °C).
With CGGAAGCAAUAUUACGGUUC, the “self-splicing fitness (ln)” value is, setting by setting: (30 °C) -3.49 ± 0.3; (37 °C) -2.85 ± 0.25.
For UAAUAGCAAUAUUACGGGAA, the “self-splicing fitness (ln)” value by setting is: (30 °C) -2.04 ± 0.21; (37 °C) -2.11 ± 0.26.
On to UUGCAGCAAUAUUACGCAUG, for which the “self-splicing fitness (ln)” value is, setting by setting: (30 °C) -2.52 ± 0.13; (37 °C) -2.99 ± 0.19.
Regarding AGGUAGCAAUAUUACGGGUG, the “self-splicing fitness (ln)” value runs as follows: (30 °C) -3.141 ± 0.021; (37 °C) -1.99 ± 0.036.
As for GAUUAGCAAUAUUACGCGAA, the “self-splicing fitness (ln)” value (30 °C) was -3.47 ± 0.29 and the “self-splicing fitness (ln)” value (37 °C) was -1.44 ± 0.21.
In the same order, the values of GUUGAGCAAUAUUACGGCAU are -1.32 ± 0.12 and -0.928 ± 0.17.
With GGAAAGCAAUAUUACGCCCA, the “self-splicing fitness (ln)” value turned out to be 0.064 ± 0.16 (30 °C) and 0.325 ± 0.23 (37 °C).
Consider GUUGAGCAAUAUUACGAUCC, for which the “self-splicing fitness (ln)” value was -0.364 ± 0.16 (30 °C) and 0.0175 ± 0.28 (37 °C).
Turning to GGACAGCAAUAUUACGAACA, the “self-splicing fitness (ln)” value (30 °C) is -0.522 ± 0.18 and the “self-splicing fitness (ln)” value (37 °C) is -0.703 ± 0.18.
For the sequence CUUCAGCAAUAUUACGUCCG, the “self-splicing fitness (ln)” value was -0.583 ± 0.056 (30 °C) and -0.437 ± 0.09 (37 °C).
As for UACAAGCAAUAUUACGGGGU, the “self-splicing fitness (ln)” value was -3.88 ± 0.15 (30 °C) and -2.58 ± 0.15 (37 °C).
Take GCUAAGCAAUAUUACGUGCC: the “self-splicing fitness (ln)” value (30 °C) was -3.59 ± 0.24 and the “self-splicing fitness (ln)” value (37 °C) is -2.35 ± 0.23.
For the sequence GAUUAGCAAUAUUACGCUCG, the “self-splicing fitness (ln)” value reads like this: (30 °C) -1.11 ± 0.12; (37 °C) -0.397 ± 0.15.
For the sequence ACUCAGCAAUAUUACGCUGG, the “self-splicing fitness (ln)” value is -2.43 ± 0.12 (30 °C) and -2.86 ± 0.22 (37 °C).
With ACCUAGCAAUAUUACGUCAC, the “self-splicing fitness (ln)” value runs as follows: (30 °C) -4.1 ± 0.18; (37 °C) -1.83 ± 0.2.
As to AUAUAGCAAUAUUACGACCA, the “self-splicing fitness (ln)” value is -1.05 ± 0.32 (30 °C) and 0.391 ± 0.26 (37 °C).
